The values below come from patent publication US20240277845A1.

By EC50 (read off the curve) is commonly meant the concentration needed to bring the measured effect to its halfway point. Low readings indicate higher potency in that assay, high ones lower potency in that assay.

In test [1] the target is Fc-iNKG2D.YA (human) (UniProt P26718). The test is described as follows: ELISA; wells coated with Fc-iNKG2D.YA, R3Mab heavy-chain MicAbody titrated. (In general: ELISA stands for enzyme-linked immunosorbent assay.)
Chain of Fc-iNKG2D.YA (human) (P26718 other isoform, or with tags, fused parts or gaps limits assumed): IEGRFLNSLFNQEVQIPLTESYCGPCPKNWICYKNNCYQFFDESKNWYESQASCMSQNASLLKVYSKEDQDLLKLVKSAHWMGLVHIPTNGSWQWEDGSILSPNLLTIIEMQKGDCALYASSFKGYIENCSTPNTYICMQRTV
The target of test [2] is Fc-wtNKG2D (human) (UniProt P26718). The test is described as follows: ELISA; wells coated with Fc-wtNKG2D, R3Mab heavy-chain MicAbody titrated.
Chain of Fc-wtNKG2D (human) (P26718 other isoform, or with tags, fused parts or gaps limits assumed): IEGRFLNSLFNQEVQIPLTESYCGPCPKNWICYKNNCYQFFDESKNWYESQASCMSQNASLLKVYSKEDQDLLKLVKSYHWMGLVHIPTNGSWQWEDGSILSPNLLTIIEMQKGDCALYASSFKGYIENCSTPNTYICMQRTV

B1: R3Mab heavy-chain fusion of U2S3 (MicAbody) (bispecific antibody, part only; not given: R3Mab variable domains, light chain, Fc, IgG1, not shown: a dimerising Fc or GST)
heavy, part: GGGSEPHSLSYDITVIPKFRPGPRWCAVQGQVDEKTFLHYDCGNKTVTPVSPLGKKLNVTTAWKAQNPVLREVVDILTEQLWDIQLENYTPKEPLTLQARMSCEQKAEGHSSGSWQFSFDGQIFLLFDSEKRMWTTVHPGARKMKEKWENDKVVATKLYLWSMGDCIGWLEDFLMGMDSTLEP
On to B1, for which, in test [1], the EC50 (read off the curve) amounted to 0.02 nM.

B2: R3Mab heavy-chain fusion of wild-type ULBP2 (MicAbody) (bispecific antibody, part only; not given: R3Mab variable domains, light chain, Fc, not shown: a dimerising Fc or GST)
heavy, part: GGGSDPHSLCYDITVIPKFRPGPRWCAVQGQVDEKTFLHYDCGNKTVTPVSPLGKKLNVTTAWKAQNPVLREVVDILTEQLRDIQLENYTPKEPLTLQARMSCEQKAEGHSSGSWQFSFDGQIFLLFDSEKRMWTTVHPGARKMKEKWENDKVVAMSFHYFSMGDCIGWLEDFLMGMDSTLEPSAGAP
For B2, in test [2], the EC50 (read off the curve) was 0.4 nM.

B3: R3Mab heavy-chain fusion of ULBP2 R81W (MicAbody) (bispecific antibody, part only; not given: R3Mab variable domains, light chain, Fc, not shown: a dimerising Fc or GST)
heavy, part: GGGSDPHSLCYDITVIPKFRPGPRWCAVQGQVDEKTFLHYDCGNKTVTPVSPLGKKLNVTTAWKAQNPVLREVVDILTEQLWDIQLENYTPKEPLTLQARMSCEQKAEGHSSGSWQFSFDGQIFLLFDSEKRMWTTVHPGARKMKEKWENDKVVAMSFHYFSMGDCIGWLEDFLMGMDSTLEPSAGAP
B3: the EC50 (read off the curve) in test [2] was found to be 0.02 nM.
